Data set [1] concerns the target T1, translation elongation factor 2 (EF-2), toxin-resistant form without diphthamide (dph1::TRP1 strains).
T1 chain: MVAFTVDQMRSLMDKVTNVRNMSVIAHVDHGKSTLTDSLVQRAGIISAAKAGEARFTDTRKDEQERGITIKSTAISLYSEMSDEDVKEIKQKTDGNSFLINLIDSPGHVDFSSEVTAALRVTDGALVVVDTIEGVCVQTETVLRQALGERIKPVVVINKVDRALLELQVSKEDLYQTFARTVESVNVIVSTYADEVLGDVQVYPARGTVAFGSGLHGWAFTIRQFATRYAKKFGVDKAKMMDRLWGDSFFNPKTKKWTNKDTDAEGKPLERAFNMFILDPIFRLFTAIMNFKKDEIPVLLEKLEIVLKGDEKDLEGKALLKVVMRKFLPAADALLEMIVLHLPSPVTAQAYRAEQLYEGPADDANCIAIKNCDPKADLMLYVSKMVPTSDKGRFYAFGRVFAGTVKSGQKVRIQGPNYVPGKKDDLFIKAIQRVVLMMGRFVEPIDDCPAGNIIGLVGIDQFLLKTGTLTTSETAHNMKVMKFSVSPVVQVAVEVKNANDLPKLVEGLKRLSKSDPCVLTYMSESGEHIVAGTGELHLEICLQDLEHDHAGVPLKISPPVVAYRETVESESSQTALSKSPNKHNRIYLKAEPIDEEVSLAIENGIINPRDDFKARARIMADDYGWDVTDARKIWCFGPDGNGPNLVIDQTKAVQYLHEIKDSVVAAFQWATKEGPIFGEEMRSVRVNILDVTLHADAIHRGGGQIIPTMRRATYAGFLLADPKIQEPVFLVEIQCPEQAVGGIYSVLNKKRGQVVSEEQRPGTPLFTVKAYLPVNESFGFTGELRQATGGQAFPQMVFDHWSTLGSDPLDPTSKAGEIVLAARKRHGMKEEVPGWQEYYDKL

Data set [2] has as its target T2, translation elongation factor 2 (EF-2), toxin-sensitive form with diphthamide.
T2 chain: T1 chain

Consider one protein from patent US6440409.

B1: diphtheria toxin F2 fragment (protein)
chain: GADDVVDSSKSFVMENFSSYHGTKPGYVDSIQKGIQKPKSGTQGNYDDDWKGFYSTDNKYDAAGYSVDNENPLSGKAGGVVKVTYPGLTKVLALKVDNAETIKKELGLSLTEPLMEQVGTEEFIKRFGDGASRVVLSLPFAEGSSSVEYINNWEQAKALSVELEINFETRGKRGQDAMYEYMAQACAGNRVRR
Turning to B1, the “viable diploids after mating of the killer strain (TMY401 with pTM147) with the diphtheria toxin-resistant strain TMY403 (dph1::TRP1), selected on SC-Ura, His” value in data set [1] is on record as “healthy diploids are readily obtained”. Besides, the “viable diploids after mating of the killer strain (TMY401 with pTM147) with the target strain (TMY407 with pRS426), selected on SC-Ura, His” value in data set [2] was “very few viable diploids appear at the intersection of the killer and target strains”.
